Data: article PMC9544252

Assays:
[1] = target: HIV-1 CAP256 SU Env gp140 produced in HEK293 cells (HIV-1 (subtype C, CAP256 SU)); experiment: SEC; gel filtration of lectin-purified gp140; normalised, overlaid elution profiles
[2] = target: HIV-1 CAP256 SU Env gp140, "glycan-enhanced" (GE), produced in N. benthamiana ∆XF (HIV-1 (subtype C, CAP256 SU)); experiment: as above

Substance: HIV-1 CAP256 SU Env gp140 produced in HEK293 cells (natural protein)
- stoichiometry N [1]: 3

Substance: HIV-1 CAP256 SU Env gp140, "glycan-enhanced" (GE), produced in N. benthamiana ∆XF (natural protein)
- stoichiometry N [2]: 3
